Changes are numbered by the printed parent chain.

Assay [1] deals with T1, human EGFRvIII protein on the surface of U87MG-hEGFRvIII cells (human, UniProt P00533 25-1210). Put plainly: cell-based or functional assay.
In assay [2] the target is T2, human EGFRvIII-hFc protein (human, UniProt P00533 25-645).
T2 construct: extracellular domain; made in HEK293 cells, purified on protein A; also called immunogen A; hFc-tagged EGFRvIII protein; not shown: human IgG Fc fragment (hFc) of the pCpC vector
Put plainly: ELISA, coated EGFRvIII-hFc, antibody 10 nM. The protocol: (§1) The purified immunogen A (EGFRvIII-hFc) obtained in example 1 (for the preparation method, see step (I) in example 1) is diluted with PBS to a final concentration of 1.0 μg/mL, and then added to a 96-well ELISA plate at 100 μl/well. The plate is sealed with a plastic film and incubated at 4° C. overnight. The next day, the plate is washed twice with a plate washing solution [PBS+0.01% (v/v) Tween20], and added with a blocking solution [PBS+0.01% (v/v) Tween20+1% (w/w) BSA] for blocking 2 hours at room temperature. The blocking solution is discarded, and the purified EGFRvIII antibody obtained in example 2 is added at 100 μl/well. The plate is incubated for 2 hours at 37° C., and then washed 3 times with the plate washing solution [PBS+0.01% (v/v) Tween20]. The plate is added with an HRP (horseradish peroxidase) labeled secondary antibody (purchased from Sigma), incubated at 37° C. for 2 hours, and then washed 3 times with the plate washing solution [PBS+0.01% (v/v) Tween20]. The plate is added with 100 μl of TMB substrate/well, incubated for 30 minutes at room temperature, and then added with 100 μl of stopping solution (1.0N HCl)/well. A450 nm value is read using an ELISA plate reader (SpectraMax 384plus, purchased from Molecular Device), and the results are shown in FIG. 6 and table 10.

Assay [3] has as its target T2, human EGFRvIII-hFc protein. Put plainly: ELISA, coated EGFRvIII-hFc, antibody 0.0001 nM. As to the method:
as §1

Assay [4] addresses T2, human EGFRvIII-hFc protein. Put plainly: ELISA, coated EGFRvIII-hFc, antibody 0.01 nM. As to the method: as §1
For assay [5], the target named is T2, human EGFRvIII-hFc protein. Put plainly: ELISA, coated EGFRvIII-hFc, antibody 1 nM. As to the method:
as §1

Assay [6] addresses T2, human EGFRvIII-hFc protein. Briefly: ELISA, coated EGFRvIII-hFc, antibody 0.1 nM. As to the method: as §1
Assay [7] addresses T2, human EGFRvIII-hFc protein. Put plainly: ELISA, coated EGFRvIII-hFc, antibody 0.001 nM. As to the method: as §1
The target of assay [8] is T2, human EGFRvIII-hFc protein. Briefly: ELISA, coated EGFRvIII-hFc, antibody 100 nM. As to the method: as §1
Assay [9] addresses T1, human EGFRvIII protein on the surface …. Briefly: FACS on U87MG-hEGFRvIII cells. As to the method: The cells are washed twice with the HBSS buffer and are counted, and then the cells are diluted with the HBSS buffer to 2×10⁶ cells/ml, added with 1% goat serum blocking solution, with the percentage being the mass percentage, and incubated on ice for 30 minutes, and then centrifugally washed twice with the HBSS buffer. The collected cells are suspended to 2×10⁶ cells/mL with an FACS buffer (HBSS+1% BSA, with the percentage being the mass percentage), added to a 96-well FACS reaction plate at 100 μL/well, then added with 100 μL/well of the purified EGFRvIII antibody (samples to be tested) obtained in example 2, and incubated on ice for 2 hours. The plate is centrifugally washed twice with the FACS buffer, added with 100 μL/well of a fluorescence (Alexa 488) labeled secondary antibody (purchased from Invitrogen), and then incubated on ice for 1 hour. The plate is centrifugally washed 3 times with the FACS buffer, added with 100 μL/well of a fixing solution [4% (v/v) paraformaldehyde] for suspending the cells, and centrifugally washed twice with the FACS buffer after 10 minutes. The cells are suspended in 100 μL of the FACS buffer, and the results are detected and analyzed by FACS (FACS Calibur, purchased from BD). Data analysis is performed by using the software (CellQuest) to obtain the mean fluorescence intensity (MFI) of the cells. Data is further analyzed by using the software (GraphPad Prism5) to perform data fitting and calculate EC50. […] A431 cells (human epidermal cell cancer cell lines) have a large amount of wild-type EGFR protein expressed on the surface thereof. […] U87MG cells (human glioma cell lines) have a small amount of wild-type EGFR protein expressed on the surface thereof, while HEB cells (human glioma cell lines) have a high level of wild-type EGFR protein expression on the surface thereof.

For assay [10], the target named is T3, wild-type EGFR protein on the surfaces of A431 tumor cells and normal human primary hepatocytes (human, UniProt P00533 25-1210).
T3 construct: whole, on cells; Same protein on two cell types; also called human epidermal growth factor receptor; her-1
Put plainly: FACS, A431 tumor cells. As to the method: (§2) The preparation of U87MG-EGFRvIII required for FACS detection is as described in the preparation of the immunogen B in example 1. Normal human primary hepatocytes are purchased from BioreclamationIVT, and A431 tumor cells are purchased from ATCC. The recovered hepatocytes are directly used for FACS detection, and the recovered U87MG-EGFRvIII and A431 cells are subjected to an expanded culture to 90% confluence in a T-75 cell culture flask; the medium is sucked out, and the cells are washed twice with a HBSS buffer (Hanks Balanced Salt Solution) (purchased from Invitrogen), and then treated with an enzyme-free cell dissociation solution (Versene solution: purchased from Life Technology) and collected. The cells are washed twice with the HBSS buffer and are counted, and then the cells are diluted with the HBSS buffer to 2×10⁶ cells/ml, added with 1% goat serum blocking solution, with the percentage being the mass percentage, and incubated on ice for 30 minutes, and then centrifugally washed twice with the HBSS buffer. The collected cells are resuspended to 2×10⁶ cells/mL with an FACS buffer (HBSS+2% FBS, with the percentage being the volume percentage), added to a 96-well FACS reaction plate at 100 μL/well, then added with 100 μL/well of the purified EGFRvIII antibody (samples to be tested) obtained in example 12, and incubated on ice for 2 hours. The plate is centrifugally washed twice with the FACS buffer, added with 100 μL/well of a 1:1000 diluted fluorescence (Alexa 488) labeled secondary antibody (purchased from Invitrogen), and incubated on ice for 1 hour. The plate is centrifugally washed 3 times with the FACS buffer, added with 100 μL/well of a fixing solution [4% (v/v) paraformaldehyde] to resuspend the cells, and centrifugally washed twice with the FACS buffer after 10 minutes. The cells are resuspended in 100 μL of the FACS buffer, and the results are detected and analyzed by FACS (FACS Calibur, purchased from BD). Data analysis is performed by using the software (CellQuest) to obtain the mean fluorescence intensity (MFI) of the cells. Data is further analyzed by using the software (GraphPad Prism5) to perform data fitting and calculate EC50.

The target in assay [11] is T3, wild-type EGFR protein on the surfaces …. Briefly: FACS, MFI on A431 cells over MFI on normal primary hepatocytes. As to the method:
as §2

For assay [12] the target is unchanged. Briefly: FACS, normal human primary hepatocytes. The protocol:
as §2

B1: Murine anti-7E5-MMAF (antibody, V domains shown)
VH: EIQLQQSGPELVKPGASVKVSCKASGYSFTDYNMYWVKQSHGKSLEWIGYVDPSNGGTNYNQKFKGKATLTVDKSSSTAFMHLNSLTSEDSAVYYCARGFFDYWGQGTTLTVSS
VL: DIVMTQSPSSLTVTAGEKVTMSCKSSQSLLNSGNQKNYLTWYQQKPGQPPKLLIYWASNRESGVPDRFTGSGSGKDFTLTISSVQAEDLAVYYCQNDYRYPVTFGAGTKLELK
Take B1: the “IC50, cell killing of U87MG-hEGFRvIII cells (CellTiter-Glo)” value (“IC50, cell killing” for short) in assay [1] is 0.02 nM.

B2: Murine anti-75G7-MMAF (antibody, V domains shown)
VH: EVQLQQSGPELVKPGASVKIPCKASGYTFTDYNMDWVKQSHGKSLEWIGDINPNNGDTIYNQKFKGKATLTVDKSSSTAYMELRSLTSEDTAVYYCARGDYDGYYPVYYAMDYWGQGTSVTVSS
VL: ENVLTQSPAIMSASPGEKVTMTCRASSSVSSSYLHWYQQKSGASPKLWIFSTSNLAAGVPARFSGSGSGTSYSLTVSSVEAEDAATYYCQQYSGYPLTFGAGTKLELK
In the case of B2, in [1], the “IC50, cell killing” value was determined as 0.27 nM.

B3: Murine anti-63A10-MMAF (antibody, V domains shown)
VH: QVQLQQSGAELARPGASVKMSCKASGYTFISFTMHWVKQRPGQGLEWIGYINPNSGYTKYNQKFKDKATLTAGQSSSTAYMQLSSLTSEDSAVYYCTRGGGRGFAYWGQGTLVTVSA
VL: DILMTQSPSSMSVSLGDTVTITCHASQDINSNIGWLQQKPGKSFKALIYHGTNLEDGVPSRFSGSGSGADYSLTISSLESEDFADYYCVQYAQFPFTFGSGTKLEIK
Turning to B3, the “IC50, cell killing” value in assay [1] stood at 0.01 nM.

B4: Murine anti-64F1-MMAF (antibody, V domains shown)
VH: B3 VH with I30S, F32Y, V37A, N54S, G73D, Q74K, A92I, T97A
VL: QIVLTQSPAIMSASPGERVTMTCSASSSVSYMYWYQQKPGSSPRLLIYDTSNLASGVPVRFSGSGSGTSYSLTISRVEAEDAATYYCQQWSSYSLTFGAGTKLELK
Regarding B4, the “IC50, cell killing” value in assay [1] worked out at 0.01 nM.

B5: Murine anti-64F1 (antibody, V domains shown)
VH: B3 VH with I30S, F32Y, V37A, N54S, G73D, Q74K, A92I, T97A
VL: B4 VL
notes: murine hybridoma antibody; also called 64F1F8
As to B5, the OD450 nm worked out at 3.76 in assay [2]; 0.08 in assay [3]; 0.16 in [4]; 3.51 in assay [5]; 1 in [6]; 0.09 in assay [7]. This molecule came in with an OD450 nm in assay [8] of 3.73.

B6: Murine anti-63A10 (antibody, V domains shown)
VH: B3 VH
VL: B3 VL
notes: murine hybridoma antibody; also called 63A10A7
In the case of B6, the OD450 nm in assay [2] stood at 3.76; in [3] it was 0.08; in assay [4], 0.17; in assay [5], 3.42; in [6], 0.8; in [7], 0.09. The same molecule gave an OD450 nm in assay [8] of 3.71.

B7: Murine anti-43H6 (antibody, V domains shown)
VH: INAEYAGGPGLVKPSQSLSLTCTVTDYSITSDYAWNWIRQFPGNKLEWMGYISYSGNTNYNPSLKSRISITRDTSKNQFFLQLNSVTTEDTATYYCARLGRGFAYWGQGTLVTVSA
VL: B3 VL with T20S, K42T, A46G, T52R, A69E, Q93H, F96P, S100A, I106L
notes: Mouse hybridoma antibody; also called 43H6A1
On to B7, for which a half-maximal response in assay [9] (EC50) required 4 nM.

B8: Humanized antibody h63A10A7-38 (antibody, human IgG1, V domains shown)
VH: QVQLVQSGAEVKKPGASVKVSCKASGYTFISFTMHWVRQAPGQGLEWIGYINPNSGYTKYNQKFKDKATLTRDTSTSTVYMELSSLRSEDTAVYYCTRGGGRGFAYWGQGTLVTVSS
VL: B3 VL with L3Q, M11L, V13A, L15V, T18R, S72T, E79Q, S80P, D85T, S100Q
notes: Human IgG1 constant region, human kappa constant region
As for B8, the entries for the “mean fluorescence intensity (MFI)” value in [10] and in assay [12] were 1060 MFI and 254 MFI, respectively. For the same molecule, in assay [11], the “Selective window (MFIA431/Hepatocytes)” value was 4.2 ratio.

B9: Humanized antibody h63A10A7-39 (antibody, human IgG1, V domains shown)
VH: B8 VH with R38K, A40R, K67R, A68V
VL: B3 VL with L3Q, M11L, V13A, L15V, T18R, S72T, E79Q, S80P, D85T, S100Q
notes: as for B8
Take B9: the “mean fluorescence intensity (MFI)” value is 1960 MFI in assay [10] and 261 MFI in [12]. For the same molecule, in assay [11], the “Selective window (MFIA431/Hepatocytes)” value was 7.5 ratio.

B10: Humanized antibody h63A10A7-37 (antibody, human IgG1, V domains shown)
VH: B8 VH with R38K, A40R, I48M, L70M
VL: B3 VL with L3Q, M11L, V13A, L15V, T18R, S72T, E79Q, S80P, D85T, S100Q
notes: as for B8
Regarding B10, the “mean fluorescence intensity (MFI)” value in assay [10] amounted to 1320 MFI; in [12] it was 265 MFI. For the same molecule, in assay [11], the “Selective window (MFIA431/Hepatocytes)” value was found to be 5 ratio.

The values above are taken from US20210032351A1 (XDCEXPLORER SHANGHAI, published 2021).
